This test has as its target chymotrypsin (Bos taurus, UniProt P00766). Put plainly: Dynamic light scattering heteroassociation experiment (rh vs molar ratio of the two proteins, fitted). Format: binding. On the procedure:
The method begins with sample preparation to be described presently. The DLS data are collected, and then analyzed in a four-step procedure. First, the concentrations of all components in a solution at a given time are calculated from postulated stoichiometries, association constant(s), Ka, and the known a priori concentrations of the stock solutions of the constituent molecule(s). […] Third, the modeled concentration data and modeled hydrodynamic radius data are combined to model the expected dynamic light scattering data at each sample ratio. Fourth, a best fit of the models to the collected DLS data is obtained. Thus, some or all parameters are adjusted to produce a best fit to the DLS data. Such fitting might be achieved using a least squares method, for example. These four steps of data analysis are discussed in detail in the following, and variations are possible, as would be apparent to one skilled in the art of DLS or particle associations.
In this example, to prepare the sample series for both self- and hetero-association, two stock solutions are mixed manually. For analysis of hetero-association, a high concentration, on the order of 0.5 mg/mL, solution of each pure molecule is prepared in the same solvent. For larger molecules, such as those greater than, say, 50 kDa, lower concentrations may be used. For analysis of self-association reactions, the molecular solution is prepared at the highest concentration to be tested; the second solution is the pure solvent in which the sample molecule was prepared. All solutions are filtered through a 0.02 μm filter.
For either type of analysis, aliquots of the two solution mixtures are dispensed into a 1536 well microtiter plate in a series of ratios from 100% A:0% B to 0% A:100% B, or some subset thereof, where the number of ratios prepared depends upon the desired detail of analysis. Typically, 10-20 ratios are used.
Following the dispensing of the sample, the microtiter plate is centrifuged at a rate and duration sufficient to remove any bubbles present in the samples; typically 1000 g for 15 seconds. Wells may then be covered to avoid evaporation, for example, by dispensing approximately 10 μL of paraffin oil into each well. The plate is then re-centrifuged prior to being placed into a dynamic light scattering instrument programmed, for example, to make 25 one-second dynamic light scattering measurements per well.
As an example of the inventive method, we consider two species A and B associating to form species AB with equilibrium association constant KAB: A+B ? AB. In this example we will use fitting procedure C, using the average hydrodynamic radius found by fitting the autocorrelation function measured for each sample to a cumulants model. We will assume that Equation (11) is valid. […]

“lysozyme: protein, 14.4 kDa, negative control”: the “binding to chymotrypsin (in words)” value (negative control, FIG. 5) is listed as “no binding”. Also, the association constant (negative control, pH 6.7) was 0.

B1: soybean trypsin inhibitor: protein, molar mass of 22 kDa, binds chymotrypsin (protein, UniProt P01070 25-205, looked up)
Trypsin inhibitor A: DFVLDNEGNPLENGGTYYILSDITAFGGIRAAPTGNERCPLTVVQSRNELDKGIGTIISSPYRIRFIAEGHPLSLKFDSFAVIMLCVGIPTEWSVVEDLPEGPAVKIGENKDAMDGWFRLERVSDDEFNNYKLVFCPQQAEDDKCGDIGISIDHDDGTRRLVVSKNKPLVVQFQKLDKESL
For the molecule B1, the “a value (association conformation parameter)” value (DLS fit, rAB={rA^a+rB^a}^1/a) worked out at 2.26. In addition, the association constant (DLS fit, soybean trypsin inhibitor fitted with an incompetent fraction of chymotrypsin) worked out at 3.8e+06 M⁻¹.

(Values after US9459207B2, “Method of characterizing interactions and screening for effectors” (Wyatt Technology Corporation, priority 2010, dated 2016).)
